We go through 5 molecules from publication PMC10397247.

Holding throughout (test): two-hybrid library CCNG1;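 note: natural log of median RNA to DNA barcode read ratio; higher means stronger binding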
Experiment [1] concerns the target T1, 4H1158-bN.
T1 chain: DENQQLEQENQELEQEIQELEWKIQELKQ

Experiment [2] concerns the target T2, 4H118-bN.
T2 chain: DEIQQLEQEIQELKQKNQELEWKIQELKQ

Experiment [3] deals with T3, 4H170-bN.
T3 chain: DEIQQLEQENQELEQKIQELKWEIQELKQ

Experiment [4] has as its target T4, 4H1831-bN.
T4 chain: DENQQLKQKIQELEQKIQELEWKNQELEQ

For experiment [5], the target named is T5, 4H2586-bN.
T5 chain: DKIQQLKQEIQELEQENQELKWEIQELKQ

Experiment [6] addresses T6, 4H2627-bN.
T6 chain: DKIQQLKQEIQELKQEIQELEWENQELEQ

Experiment [7] has as its target T7, 4H2673-bN.
T7 chain: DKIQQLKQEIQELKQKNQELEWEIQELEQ

Experiment [8] has as its target T8, 4H2702-bN.
T8 chain: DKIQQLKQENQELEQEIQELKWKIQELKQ

For experiment [9], the target named is T9, 4H3010-bN.
T9 chain: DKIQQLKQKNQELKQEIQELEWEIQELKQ

The target in experiment [10] is T10, 4H3112-bN.
T10 chain: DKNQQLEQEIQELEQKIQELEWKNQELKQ

Experiment [11] addresses T11, 4H3427-bN.
T11 chain: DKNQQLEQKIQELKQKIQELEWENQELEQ

The target of experiment [12] is T12, 4H346-bN.
T12 chain: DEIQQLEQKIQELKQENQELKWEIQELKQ

The target of experiment [13] is T13, 4H3926-bN.
T13 chain: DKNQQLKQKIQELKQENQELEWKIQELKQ

Experiment [14] addresses T14, 4H4073-bN.
T14 chain: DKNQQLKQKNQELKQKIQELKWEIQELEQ

For experiment [15], the target named is T15, 4H457-bN.
T15 chain: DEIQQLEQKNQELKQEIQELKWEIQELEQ

For experiment [16], the target named is T16, 4H575-bN.
T16 chain: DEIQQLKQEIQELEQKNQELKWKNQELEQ

Experiment [17] has as its target T17, 4H683-bN.
T17 chain: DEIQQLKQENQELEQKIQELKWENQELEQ

Experiment [18] concerns the target T18, 4H754-bN.
T18 chain: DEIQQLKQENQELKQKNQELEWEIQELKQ

In experiment [19] the target is T19, 4H780-bN.
T19 chain: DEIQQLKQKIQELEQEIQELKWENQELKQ

Experiment [20] deals with T20, 4H797-bN.
T20 chain: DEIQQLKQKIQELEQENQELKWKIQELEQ

Experiment [21] deals with T21, 4H855-bN.
T21 chain: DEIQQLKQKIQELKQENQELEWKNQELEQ

Experiment [22] deals with T22, 4H918-bN.
T22 chain: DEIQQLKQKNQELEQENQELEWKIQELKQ

Experiment [23] concerns the target T23, 4H953-bN.
T23 chain: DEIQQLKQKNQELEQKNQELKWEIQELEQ

The target of experiment [24] is T24, 4H968-bN.
T24 chain: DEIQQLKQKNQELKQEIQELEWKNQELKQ

The target in experiment [25] is T25, 4H1158-bH.
T25 chain: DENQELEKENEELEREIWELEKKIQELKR

For experiment [26], the target named is T26, 4H118-bH.
T26 chain: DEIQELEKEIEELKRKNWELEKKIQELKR

The target in experiment [27] is T27, 4H170-bH.
T27 chain: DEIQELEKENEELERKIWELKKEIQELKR

Experiment [28] has as its target T28, 4H1831-bH.
T28 chain: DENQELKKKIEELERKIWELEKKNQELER

For experiment [29], the target named is T29, 4H2586-bH.
T29 chain: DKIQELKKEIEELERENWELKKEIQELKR

The target of experiment [30] is T30, 4H2627-bH.
T30 chain: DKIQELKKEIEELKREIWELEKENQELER

In experiment [31] the target is T31, 4H2673-bH.
T31 chain: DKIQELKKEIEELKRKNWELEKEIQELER

Experiment [32] has as its target T32, 4H2702-bH.
T32 chain: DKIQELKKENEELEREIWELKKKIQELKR

Experiment [33] deals with T33, 4H3010-bH.
T33 chain: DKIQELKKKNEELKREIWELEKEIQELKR

Experiment [34] deals with T34, 4H3112-bH.
T34 chain: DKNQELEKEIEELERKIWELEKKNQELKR

Experiment [35] addresses T35, 4H3427-bH.
T35 chain: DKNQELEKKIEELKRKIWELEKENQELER

The target of experiment [36] is T36, 4H346-bH.
T36 chain: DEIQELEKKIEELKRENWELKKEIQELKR

Experiment [37] addresses T37, 4H3926-bH.
T37 chain: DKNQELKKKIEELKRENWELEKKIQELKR

The target of experiment [38] is T38, 4H4073-bH.
T38 chain: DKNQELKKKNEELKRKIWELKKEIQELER

In experiment [39] the target is T39, 4H457-bH.
T39 chain: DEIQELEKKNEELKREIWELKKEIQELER

Experiment [40] addresses T40, 4H575-bH.
T40 chain: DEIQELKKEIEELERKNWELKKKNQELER

Experiment [41] deals with T41, 4H683-bH.
T41 chain: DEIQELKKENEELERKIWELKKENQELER

For experiment [42], the target named is T42, 4H754-bH.
T42 chain: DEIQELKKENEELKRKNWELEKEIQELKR

The target in experiment [43] is T43, 4H780-bH.
T43 chain: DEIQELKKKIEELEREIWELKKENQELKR

Experiment [44] has as its target T44, 4H797-bH.
T44 chain: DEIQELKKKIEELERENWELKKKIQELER

In experiment [45] the target is T45, 4H855-bH.
T45 chain: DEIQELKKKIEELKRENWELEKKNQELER

Experiment [46] has as its target T46, 4H918-bH.
T46 chain: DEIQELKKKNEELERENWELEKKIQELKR

For experiment [47], the target named is T47, 4H953-bH.
T47 chain: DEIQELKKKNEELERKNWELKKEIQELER

The target of experiment [48] is T48, 4H968-bH.
T48 chain: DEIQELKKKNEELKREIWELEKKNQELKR

In experiment [49] the target is T49, P11A.
T49 chain: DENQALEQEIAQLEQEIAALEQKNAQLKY

Experiment [50] has as its target T50, P12A.
T50 chain: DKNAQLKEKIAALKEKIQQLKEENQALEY

The target of experiment [51] is T51, P1A.
T51 chain: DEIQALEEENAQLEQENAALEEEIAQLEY

The target of experiment [52] is T52, P2A.
T52 chain: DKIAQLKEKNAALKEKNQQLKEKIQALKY

Experiment [53] concerns the target T53, P3A.
T53 chain: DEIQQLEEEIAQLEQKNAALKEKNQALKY

In experiment [54] the target is T54, P4A.
T54 chain: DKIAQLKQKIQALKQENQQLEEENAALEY

Experiment [55] addresses T55, P5A.
T55 chain: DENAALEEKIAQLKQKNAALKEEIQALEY

Experiment [56] addresses T56, P6A.
T56 chain: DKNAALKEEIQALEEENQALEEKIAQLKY

The target of experiment [57] is T57, P7A.
T57 chain: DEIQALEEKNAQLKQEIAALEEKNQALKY

Experiment [58] addresses T58, P8A.
T58 chain: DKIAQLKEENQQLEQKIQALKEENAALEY

Experiment [59] has as its target T59, P9A.
T59 chain: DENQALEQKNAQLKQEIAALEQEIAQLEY

In experiment [60] the target is T60, 4H1387-bH.
T60 chain: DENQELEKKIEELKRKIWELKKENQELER

The target in experiment [61] is T61, 4H1406-bH.
T61 chain: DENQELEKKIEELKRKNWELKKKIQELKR

Experiment [62] has as its target T62, 4H3592-bH.
T62 chain: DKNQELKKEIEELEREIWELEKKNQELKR

Experiment [63] has as its target T63, 4H3601-bH.
T63 chain: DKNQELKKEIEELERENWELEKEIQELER

The target in experiment [64] is T64, 4H3907-bH.
T64 chain: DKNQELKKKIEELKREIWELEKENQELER

Experiment [65] concerns the target T65, 4H4001-bH.
T65 chain: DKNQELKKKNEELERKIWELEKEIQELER

Experiment [66] concerns the target T66, 4H4038-bH.
T66 chain: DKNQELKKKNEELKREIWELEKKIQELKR

Experiment [67] addresses T67, 4H850-bN.
T67 chain: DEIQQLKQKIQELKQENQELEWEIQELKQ

Consider DENQQLEQENQELEQEIQELEWKIQELKQ [4H1158-bN], for which the interaction score in [1] was 0.0264; in [2], 0.579; in experiment [3] it was -0.262; in experiment [4] it was -0.553; in experiment [5], 0.693; in experiment [6], -1.89. Also, the interaction score was -1.07 in experiment [7]; -0.191 in experiment [8]; 1.32 in experiment [9]; 0.501 in experiment [10]; -0.273 in [11]; -0.45 in experiment [12]. Moreover, the interaction score in experiment [13] was -1.19; in experiment [14], 2.1; in experiment [15], 0.107; in experiment [16] it was -0.306; in experiment [17] it was 0.827; in experiment [18] it was 0.195. Also, the interaction score was -0.000435 in experiment [19]; -0.804 in experiment [20]; 0.326 in experiment [21]; -1.72 in experiment [22]; 0.0849 in experiment [23]; -1.23 in experiment [24].

As to DENQELEKENEELEREIWELEKKIQELKR [4H1158-bH], the interaction score in [25] stood at 0.619; in [26], 0.729; in experiment [27] it was 0.0131; in experiment [28], 0.197; in experiment [29], 0.198; in experiment [30], 1.81. Besides, the interaction score is 0.836 in experiment [31]; 0.109 in [32]; 1.95 in experiment [33]; -0.598 in [34]; 0.596 in [35]; 0.268 in [36]. The interaction score in experiment [37] stood at 1.63; in [38], 1.57; in experiment [39] it was 0.951; in experiment [40] it was 0.888; in experiment [41] it was 1.13; in [42] it was 0.159. The interaction score in experiment [43] was 0.975; in experiment [44] it was 0.508; in experiment [45], -0.335; in experiment [46] it was -0.233; in [47], 0.0112; in [48] it was 0.725.

Consider DENQALEQEIAQLEQEIAALEQKNAQLKY [P11A], for which the interaction score was -0.318 in [49]; 2.09 in [50]; -0.233 in experiment [51]; -0.397 in experiment [52]; 0.195 in experiment [53]; 1.99 in experiment [54]. Further, the interaction score in experiment [55] was 0.167; in experiment [56] it was -0.873; in experiment [57], -1.77; in experiment [58], -0.16; in [59], 0.145.

On to DKNAQLKEKIAALKEKIQQLKEENQALEY [P12A], for which the interaction score in experiment [50] is -1.24; in experiment [51] it was -1.2; in experiment [52] it was -1.43; in [53] it was 0.438; in experiment [54], -1.48; in experiment [55] it was -1.22. Further, the interaction score in experiment [56] is -1.16; in experiment [57], -1.15; in experiment [58], -1.25; in [59], -0.254.

As to DENQELEKKIEELKRKIWELKKENQELER [4H1387-bH], the interaction score in experiment [60] was 0.423; in experiment [61] it was -0.693; in [62], 1.37; in experiment [63], -0.847; in [64], 1.59; in [65], 0.333. In addition, the interaction score came to 1.09 in [66] and 0.44 in experiment [67].
